In the supplement of paper PMC11908140:

B1: library; numbered along this chain (parent)
chain: MRKPRAAVGSGHRKQAASQEGRQKHAKNNSQAKPSACDGLARQPEEVVLQASVSSYHLFRDVAEVTAFRGSLLSWYDQEKRDLPWRRRAEDEMDLDRRAYAVWVSEVMLQQTQVATVINYYTGWMQKWPTLQDLASASLEEVNQLWAGLGYYSRGRRLQEGARKVVEELGGHMPRTAETLQQLLPGVGRYTAGAIASIAFGQATGVVDGNVARVLCRVRAIGADPSSTLVSQQLWGLAQQLVDPARPGDFNQAAMELGATVCTPQRPLCSQCPVESLCRARQRVEQEQLLASGSLSGSPDVEECAPNTGQCHLCLPPSEPWDQTLGVVNFPRKASRKPPREESSATCVLEQPGALGAQILLVQRPNSGLLAGLWEFPSVTWEPSEQLQRKALLQELQRWAGPLPATHLRHLGEVVHTFSHIKLTYQVYGLALEGQTPVTTVPPGARWLTQEEFHTAAVSTAMKKVFRVYQGQQPGTCMGSKRSQVSSPCSRKKPRMGQQVLDNFFRSHISTDAHSLNSAAQ

Variants of: B1
Assay: 8OG:A repair function score (normalized; synonymous = 0, nonsense = -1) (normalized log-likelihood score); higher = more repair activity (WT-like)
Settings: with 8OG:A DNA repair reporter (GFP) in HEK-293 MUTYH KO cells
Summary of the method: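 With 10 pg/ml doxycycline, MUTYH knockout HEK-293 cells carrying lentiviral MUTYH cDNA NNN codon-scan libraries were co-transfected with mCherry and an 8OG:A GFP repair reporter. Viable mCherry+ cells were sorted into GFP+ (repair) and GFP− bins at 72 h, three replicates per tile, and tile amplicons were sequenced. Per-tile Rosace fitness scores were then normalized into a repair function score anchored on synonymous and nonsense distributions. Medians were fixed at 0 for synonymous and -1 for nonsense, excluding variants under 300 counts per million at the start.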

Compared with V211F, E79H is higher in “8OG:A repair function score” value: -0.4 for the first, -0.0574 for the second.

Going from S292G to P338R, the “8OG:A repair function score” value rises from -0.00959 to 0.00053.

Compared with P338A, F68Q is lower in “8OG:A repair function score” value: -0.066 for the first, -0.906 for the second.

First: A223E
Second: G222I
The “8OG:A repair function score” value of the first is higher: -0.219 for the first, -0.608 for the second.

Going from R87Y to R87L, the “8OG:A repair function score” value rises from -0.052 to -0.0416.

First: V166T
Second: Q50N
The “8OG:A repair function score” value of the first is lower: -0.155 for the first, 0.00105 for the second.

Compared with Q50A, Q521T is lower in “8OG:A repair function score” value: -0.00978 for the first, -0.0167 for the second.

Compared with Q521C, Q521H is higher in “8OG:A repair function score” value: 0.00296 for the first, 0.0162 for the second.

Going from S276N to P34I, the “8OG:A repair function score” value falls from -0.00423 to -0.0342.

Going from P299T to Q397D, the “8OG:A repair function score” value falls from -0.0424 to -0.0883.

First: G248Y
Second: N119I
The “8OG:A repair function score” value of the first is lower: -0.996 for the first, -0.263 for the second.

Going from L149G to A520R, the “8OG:A repair function score” value rises from -0.743 to 0.027.

Compared with A280C, A280W is lower in “8OG:A repair function score” value: -0.398 for the first, -0.57 for the second.

Compared with P365R, P365Q is lower in “8OG:A repair function score” value: -0.0845 for the first, -0.147 for the second.

First: S486A
Second: K493S
The “8OG:A repair function score” value of the first is lower: 0.00239 for the first, 0.0155 for the second.

First: Q473I
Second: A334C
The “8OG:A repair function score” value of the first is higher: -0.0484 for the first, -0.0888 for the second.

Going from S384I to S384K, the “8OG:A repair function score” value falls from 0.0514 to -0.0507.

Going from S384F to I509L, the “8OG:A repair function score” value falls from 0.0338 to 0.00266.

Compared with R60V, R389W is lower in “8OG:A repair function score” value: 0.00595 for the first, -0.531 for the second.

Going from R389F to T346D, the “8OG:A repair function score” value falls from -0.357 to -0.917.

Compared with K390P, K390R is higher in “8OG:A repair function score” value: -0.262 for the first, -0.126 for the second.

Going from S480E to T112P, the “8OG:A repair function score” value falls from -0.00292 to -1.38.

Going from G444I to W75V, the “8OG:A repair function score” value falls from -0.373 to -1.78.

Compared with E46W, G258F is lower in “8OG:A repair function score” value: -0.0064 for the first, -1.24 for the second.

First: L290T
Second: A357N
The “8OG:A repair function score” value of the first is lower: 0.0127 for the first, 0.104 for the second.

Going from V328Y to T417M, the “8OG:A repair function score” value rises from -0.134 to 0.321.

First: R409G
Second: R409A
The “8OG:A repair function score” value of the first is lower: -0.342 for the first, -0.0367 for the second.

Compared with D61G, C304M is lower in “8OG:A repair function score” value: 0.00587 for the first, -0.303 for the second.

First: A36H
Second: L268E
The “8OG:A repair function score” value of the first is higher: 0.146 for the first, -0.133 for the second.

First: K481G
Second: W381Y
The “8OG:A repair function score” value of the first is lower: -0.0136 for the first, -0.0016 for the second.

Compared with W381D, G401E is higher in “8OG:A repair function score” value: -0.141 for the first, 0.191 for the second.

First: G401I
Second: G353M
The “8OG:A repair function score” value of the first is lower: -0.184 for the first, -0.178 for the second.

Going from Q484R to Q484Y, the “8OG:A repair function score” value rises from 0.00822 to 0.00945.

First: A305P
Second: A305Y
The “8OG:A repair function score” value of the first is lower: -0.125 for the first, 0.000265 for the second.

Compared with W399R, V362K is higher in “8OG:A repair function score” value: -0.289 for the first, -0.0434 for the second.

Compared with P247A, L392G is lower in “8OG:A repair function score” value: -0.379 for the first, -0.896 for the second.

Going from T424E to T439F, the “8OG:A repair function score” value rises from -0.45 to -0.0571.

First: T439V
Second: G155N
The “8OG:A repair function score” value of the first is higher: 0.0472 for the first, -0.213 for the second.

Going from G326K to A147Y, the “8OG:A repair function score” value falls from -0.179 to -0.549.

Going from E45D to Q386S, the “8OG:A repair function score” value falls from 0.155 to -0.0961.

First: Q386Y
Second: Q386K
The “8OG:A repair function score” value of the first is higher: 0.41 for the first, -0.213 for the second.

First: S270D
Second: R279Q
The “8OG:A repair function score” value of the first is higher: -0.0528 for the first, -0.155 for the second.
